Test results published in patent US20220380473A1, “ANTI-GAL3 ANTIBODIES AND USES THEREOF” (TrueBinding, Inc., priority 2019, published 2022).
“Also recorded” adds a separate entry of the source.

How the values were obtained:
[1] = molecular target: T1, association of GAL3 and TIM3 (Homo sapiens, UniProt P17931); assay: GAL3-TIM3 blocking ELISA (Examples 24, 27); type: binding; conditions: 3 ug/mL antibody
T1 construct: full-length human Galectin-3 protein (Acro Biosystems, GA3-H5129); linker-spaced 6-histidine tag; purchased Acro Biosystems GA3-H5129 (Gal3); TM3-H5229 (TIM-3)
T1 sequence (P17931 2-250 limits assumed): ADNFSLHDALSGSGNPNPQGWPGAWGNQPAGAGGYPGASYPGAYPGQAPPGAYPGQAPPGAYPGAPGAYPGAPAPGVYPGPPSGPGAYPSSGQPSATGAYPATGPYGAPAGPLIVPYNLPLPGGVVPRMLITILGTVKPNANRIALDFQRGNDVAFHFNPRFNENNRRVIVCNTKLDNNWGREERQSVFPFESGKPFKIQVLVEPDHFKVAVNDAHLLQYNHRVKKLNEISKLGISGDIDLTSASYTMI
Summary of the method: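 Plates coated with human Galectin-3 at 3 μg/ml, blocked with 2% BSA, then given hybridoma supernatant, antibody or inhibitor (3-fold dilutions from 20 μg/ml, 60 μg/ml or 180 μM) plus 2 μg/ml human TIM3 added 1:1, 1 h at room temperature. Bound TIM3 detected by biotinylated anti-TIM3, avidin-HRP and TMB at 450 nm.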

[2] = system: human dendritic cells (DC), M1 and M2 macrophage cells; assay: Flow cytometry staining of human DC, M1 and M2 macrophages; type: cell-based; conditions: 10 μg/ml
Experimental: First Human CD14 monocytes were isolated from peripheral blood mononuclear cells (PBMC) with a CD14 cell positive selection kit (Miltenyi, Auburn, Calif.) and differentiated into dendritic cells (DC), or into M1 macrophages, or into M2 macrophages in the presence of GM-CSF plus IL-4, or GM-CSF, or M-CSF (Rocky Hill, N.J.), respectively. Then flow cytometry analysis was performed to detect Gal3 expression on human dendritic cells (DC), M1 and M2 macrophage cells. In details, 100,000 DC, M1 or M2 cells were incubated with 100 μl 10% FBS HBSS solution that contains with control mIgG-biotin (BioLegend) or IMT001-biotin at 10 μg/ml on ice for 20 minutes. Then cells were washed and incubated with PE-streptavidin (BioLegend) at 1:1000 on ice for 20 min. After spinning, live/dead cells were stained with Violet dead cell stain kit (Life Technologies). Stained cells were subjected to flow analysis.

human Gal3 protein = assay: Epitope binding of IMT001, hGal3 peptide array dot blot and peptide ELISA; conditions: dot blot, 1 ug/ml antibody
Experimental: A peptide array containing 24 20 amino acid peptides overlapping by 10 amino acid and covering the whole human Gal3 protein sequence was synthesized (Genscript, Piscataway, N.J.) (FIG. 11A). 20 μg of each peptide was dot blotted onto a membrane. After blocking with 5% milk in PBS, the membrane was incubated with 1 ug/ml IMT001 antibody at 4C for overnight. After three times of washes, the membrane was incubated with 1:8000 diluted anti mIgG HRP antibody (Southern Biotech, Birmingham, Ala.) for one hour. After three times of washes, the membrane was incubated with Western ECL blotting substrates (Bio-Rad, Hercules, Calif.) and developed (FIG. 11B).
To further define binding epitope of IMT001 on the above peptide, 8 shorter peptides derived from it were synthesized (Genscript, Piscataway, N.J.) (FIG. 11C) and their binding by IMT001 was determined by ELISA (FIG. 11D). 96 well Elisa plate (Thermo Scientific) was coated with these peptides in PBS buffer and incubated at 4° C. for overnight. The plate was washed three times with TBST and then blocked with PBST buffer containing 2% BSA at room temperature for 1 h. IMT001 at 10 μg/mL was incubated in the coated Elisa plate at room temperature for 1 h. […] The optical density (OD) was read at 450 nm. The results were expressed as the average OD of duplicates±SD.

[3] = system: RAW macrophages/DO11.10 T cell mixed reaction; assay: Mixed Lymphocyte Reaction, RAW macrophages/DO11.10 T cells, IL-2; type: cell-based, mouse; conditions: 10 μg/ml, overnight, vs mIgG
Experimental: RAW mouse macrophage cells were mixed with […] mouse T cells at 1:1 ratio, treated with OVA peptide, and cultured in the presence of mIgG (BD Biosciences), anti mPD1 antibody 29F (BioXCell) or IMT001 at 10 μg/ml for overnight 37° C. 50 μl of the culture medium was taken for mIL-2 measurement. The mIL-2 production was measured according to the commercial kit mouse IL-2 Elisa Ready-SET-Go from eBioscience.

GAL3-TIM3 Blocking @ 3 ug/mL [1]: 80%
B1: IMT001: anti-Gal3 monoclonal antibody (Immutics); printed as mIMT001 (IMT001), murine (antibody, V domains shown)
VH: QIQLVQSGPELKKPGETVKISCKASGYTFTNYGMNWVKQAPGKGLKWMGWINTNTGEPTYVEEFKGRFAFSLETSASTAYLQINNLKNEDTATYFCAPYDNFFAYWGQGTLVTVSA
VL: DIVITQDELSNPVTSGESVSISCRSSKSLLYKDGKTYLNWFLQRPGQSPQLLIYLMSTHASGVSDRFSGSGSGTDFTLEISRVKAEDVGVYYCQQLVDYPLTFGAGTKLELK
staining of dendritic cells and M1 macrophages [2]: could not be stained | mean fluorescence intensity (MFI) of stained M2 cells vs isotype control ([2]; human M2 macrophages): much higher | epitope on hGal3, 20 amino acid peptide array (human Gal3 protein): Peptides 5 and 6; also recorded: peptide_5 | production of IL-2 [3]: enhanced the production of IL-2
